Measurements as given in article PMC2747101.

Target: hCD40ADD (human CD40 with its TRAF binding site PVQETLH changed to PVQATDD) (human) (UniProt P25942)
Experiment: co-IP

B1: TNF receptor-associated factor 2 (natural protein)
chain: MAAASVTSPGSLELLQPGFSKTLLGTRLEAKYLCSACKNILRRPFQAQCGHRYCSFCLTSILSSGPQNCAACVYEGLYEEGISILESSSAFPDNAARREVESLPAVCPNDGCTWKGTLKEYESCHEGLCPFLLTECPACKGLVRLSEKEHHTEQECPKRSLSCQHCRAPCSHVDLEVHYEVCPKFPLTCDGCGKKKIPRETFQDHVRACSKCRVLCRFHTVGCSEMVETENLQDHELQRLREHLALLLSSFLEAQASPGTLNQVGPELLQRCQILEQKIATFENIVCVLNREVERVAVTAEACSRQHRLDQDKIEALSNKVQQLERSIGLKDLAMADLEQKVSELEVSTYDGVFIWKISDFTRKRQEAVAGRTPAIFSPAFYTSRYGYKMCLRVYLNGDGTGRGTHLSLFFVVMKGPNDALLQWPFNQKVTLMLLDHNNREHVIDAFRPDVTSSSFQRPVSDMNIASGCPLFCPVSKMEAKNSYVRDDAIFIKAIVDLTGL
fold reduction of co-immunoprecipitated TRAF2 against hCD40: 2 fold
